What was measured:
GPC2 antigen = biological target: T1, GPC2 antigen (UniProt Q8N158 24-553, limits assumed); assay: flow cytometry of Jurkat T cells expressing the construct, GPC2 binding read in the APC channel; GPC2 concentration not given
T1 construct: also called glypican-2
T1 sequence (looked up): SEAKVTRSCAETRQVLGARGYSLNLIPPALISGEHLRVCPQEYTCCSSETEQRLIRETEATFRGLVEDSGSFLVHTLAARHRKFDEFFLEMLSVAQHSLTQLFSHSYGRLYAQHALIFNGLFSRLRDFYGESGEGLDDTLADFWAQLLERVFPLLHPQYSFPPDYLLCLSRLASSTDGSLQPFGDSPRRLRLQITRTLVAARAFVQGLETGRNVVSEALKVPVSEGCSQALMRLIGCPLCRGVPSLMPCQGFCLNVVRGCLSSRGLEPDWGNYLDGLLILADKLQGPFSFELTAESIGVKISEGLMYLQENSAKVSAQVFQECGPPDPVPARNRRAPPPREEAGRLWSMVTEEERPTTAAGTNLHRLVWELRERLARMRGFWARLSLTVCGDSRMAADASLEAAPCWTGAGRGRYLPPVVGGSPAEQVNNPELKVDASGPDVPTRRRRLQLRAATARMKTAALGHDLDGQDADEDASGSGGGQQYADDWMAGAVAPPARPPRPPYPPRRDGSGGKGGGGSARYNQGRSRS
Excerpt: Shown in FIG. 12 is a flow cytometric analysis of Jurkat T cells expressing CT3 and hCT3 CARs (CT3-CD28HTM and hCT3-1 CD28HTM, respectively) and AbTCRs+CSRs (ART-CT3-CT3 and ART-hCT3-1-hCT3-1, respectively). T cells expressing each of the constructs were capable of binding to GPC2 antigen. Mock T cells not expressing a CAR or AbTCR+CSR were included as a negative control.

GPC3 protein [1] = biological target: GPC3 protein (UniProt P51654); assay: flow cytometry of Jurkat T cells expressing the construct, stained with 2.3ng/ml (0.04nM) GPC3-hFc
GPC3 protein [2] = biological target: GPC3 protein (UniProt P51654); assay: flow cytometry of Jurkat T cells expressing the construct, stained with 4.6ng/ml (0.08nM) GPC3-hFc

B1: hCT3 CAR (hCT3-1 CD28HTM) (other)
VH: QVQLVQSGAEVKKPGASVKVSCKASRFTFTDYNIHWVRQAPGQGLEWIGYINPNNGDIFYKQKFNGRVTLTADKSTSTAYMELSSLTSEDTAVYYCVRSSNIRYTFDRFFDVWGQGTLVTVSS
VL: DVVMTQSPLSLPVTPGEPASISCRASSSVNYIYWYLQKPGQSPQLWIYYTSNLAPGVPDRFSGSGSGTDFTLKISRVEAEDVGVYYCQQFSSSPSTFGQGTKLEIK
notes: only hCT3-1 VH and VL are tied to the antibody; also called hCT3-CD28HTM
GPC2 antigen
  percent of cells in the GPC2-binding-positive gate: 26.5%

B2: ART-hCT3-1-hCT3-1 AbTCR+CSR (other)
chain 1: DVVMTQSPLSLPVTPGEPASISCRASSSVNYIYWYLQKPGQSPQLWIYYTSNLAPGVPDRFSGSGSGTDFTLKISRVEAEDVGVYYCQQFSSSPSTFGQGTKLEIKRSRGGGGSGGGGSGGGGSLEMAQVQLVQSGAEVKKPGASVKVSCKASRFTFTDYNIHWVRQAPGQGLEWIGYINPNNGDIFYKQKFNGRVTLTADKSTSTAYMELSSLTSEDTAVYYCVRSSNIRYTFDRFFDVWGQGTLVTVSSEQKLISEEDLAAATGAPPLGTQPDCNPTPENGEAPASTSPTQSLLVDSQASKTLPIPTSAPVALSSTGKPVLDAGPVLFWVILVLVVVVGSSAFLLCHRRACRKRIRQKLHLCYPVQTSQPKLELVDSRPRRSSTQLRSGASVTEPVAEERGLMSQPLMETCHSVGAAYLESLPLQDASPAGGPSSPRDLPEPRVSTEHTNNKIEKIYIMKADTVIVGTVKAELPEGRGLAGPAEPELEEELEADHTPHYPEQETEPPLGSCSDVMLSVEEEGKEDPLPTAASGK
chain 2: QVQLVQSGAEVKKPGASVKVSCKASRFTFTDYNIHWVRQAPGQGLEWIGYINPNNGDIFYKQKFNGRVTLTADKSTSTAYMELSSLTSEDTAVYYCVRSSNIRYTFDRFFDVWGQGTLVTVSSASTKGPSVFPLAPSSKSTSGGTAALGCLVKDYFPEPVTVSWNSGALTSGVHTFPAVLQSSGLYSLSSVVTVPSSSLGTQTYICNVNHKPSNTKVDKRVEPKSCEVKTDSTDHVKPKETENTKQPSKSCHKPKAIVHTEKVNMMSLTVLGLRMLFAKTVAVNFLLTAKLFFL
chain 3: DVVMTQSPLSLPVTPGEPASISCRASSSVNYIYWYLQKPGQSPQLWIYYTSNLAPGVPDRFSGSGSGTDFTLKISRVEAEDVGVYYCQQFSSSPSTFGQGTKLEIKRTVAAPSVFIFPPSDEQLKSGTASVVCLLNNFYPREAKVQWKVDNALQSGNSQESVTEQDSKDSTYSLSSTLTLSKADYEKHKVYACEVTHQGLSSPVTKSFNRGECPIKTDVITMDPKDNCSKDANDTLLLQLTNTSAYYMYLLLLLKSVVYFAIITCCLLRRTAFCCNGEKS
notes: also called ART-hCT3-hCT3; hCT3 AbTCR+CSR
GPC2 antigen
  percent of cells in the GPC2-binding-positive gate: 62.4%

B3: ART-CT3-CT3 AbTCR+CSR (other)
chain 1: ENVLTQSPAIMSASLGEKVTMSCRASSSVNYIYWYQQKSDASPKLWIYYTSNLAPGVPARFSGSGSGNSYSLTISSMEGEDAATYYCQQFSSSPSTFGTGTKLELKRSRGGGGSGGGGSGGGGSLEMAEVQLQQSGPELVKPGASVKMSCKASRFTFTDYNIHWVKQSPGKTLEWIGYINPNNGDIFYKQKFNGKATLTINKSSNTAYMELRSLTSEDSAVYYCVRSSNIRYTFDRFFDVWGTGTTVTVSSEQKLISEEDLAAATGAPPLGTQPDCNPTPENGEAPASTSPTQSLLVDSQASKTLPIPTSAPVALSSTGKPVLDAGPVLFWVILVLVVVVGSSAFLLCHRRACRKRIRQKLHLCYPVQTSQPKLELVDSRPRRSSTQLRSGASVTEPVAEERGLMSQPLMETCHSVGAAYLESLPLQDASPAGGPSSPRDLPEPRVSTEHTNNKIEKIYIMKADTVIVGTVKAELPEGRGLAGPAEPELEEELEADHTPHYPEQETEPPLGSCSDVMLSVEEEGKEDPLPTAASGK
chain 2: EVQLQQSGPELVKPGASVKMSCKASRFTFTDYNIHWVKQSPGKTLEWIGYINPNNGDIFYKQKFNGKATLTINKSSNTAYMELRSLTSEDSAVYYCVRSSNIRYTFDRFFDVWGTGTTVTVSSASTKGPSVFPLAPSSKSTSGGTAALGCLVKDYFPEPVTVSWNSGALTSGVHTFPAVLQSSGLYSLSSVVTVPSSSLGTQTYICNVNHKPSNTKVDKRVEPKSCEVKTDSTDHVKPKETENTKQPSKSCHKPKAIVHTEKVNMMSLTVLGLRMLFAKTVAVNFLLTAKLFFL
chain 3: ENVLTQSPAIMSASLGEKVTMSCRASSSVNYIYWYQQKSDASPKLWIYYTSNLAPGVPARFSGSGSGNSYSLTISSMEGEDAATYYCQQFSSSPSTFGTGTKLELKRTVAAPSVFIFPPSDEQLKSGTASVVCLLNNFYPREAKVQWKVDNALQSGNSQESVTEQDSKDSTYSLSSTLTLSKADYEKHKVYACEVTHQGLSSPVTKSFNRGECPIKTDVITMDPKDNCSKDANDTLLLQLTNTSAYYMYLLLLLKSVVYFAIITCCLLRRTAFCCNGEKS
notes: AbTCR heterodimer and CSR are expressed together on one cell
GPC2 antigen
  percent of cells in the GPC2-binding-positive gate: 57.3%

B4: CT3 CAR (CT3-CD28HTM) (other)
VH: EVQLQQSGPELVKPGASVKMSCKASRFTFTDYNIHWVKQSPGKTLEWIGYINPNNGDIFYKQKFNGKATLTINKSSNTAYMELRSLTSEDSAVYYCVRSSNIRYTFDRFFDVWGTGTTVTVSS
VL: ENVLTQSPAIMSASLGEKVTMSCRASSSVNYIYWYQQKSDASPKLWIYYTSNLAPGVPARFSGSGSGNSYSLTISSMEGEDAATYYCQQFSSSPSTFGTGTKLELK
notes: Only the CT3 VH and VL are tied to the antibody
GPC2 antigen
  percent of cells in the GPC2-binding-positive gate: 41.9%

B5: ART-HN3-HN3 AbTCR+CSR (protein)
chain 1: QVQLVQSGGGLVQPGGSLRLSCAASYFDFDSYEMSWVRQAPGKGLEWIGSIYHSGSTYYNPSLKSRVTISRDNSKNTLYLQMNTLRAEDTATYYCARVNMDRFDYWGQGTLVTVSSEQKLISEEDLAAATGAPPLGTQPDCNPTPENGEAPASTSPTQSLLVDSQASKTLPIPTSAPVALSSTGKPVLDAGPVLFWVILVLVVVVGSSAFLLCHRRACRKRIRQKLHLCYPVQTSQPKLELVDSRPRRSSTQLRSGASVTEPVAEERGLMSQPLMETCHSVGAAYLESLPLQDASPAGGPSSPRDLPEPRVSTEHTNNKIEKIYIMKADTVIVGTVKAELPEGRGLAGPAEPELEEELEADHTPHYPEQETEPPLGSCSDVMLSVEEEGKEDPLPTAASGK
chain 2: QVQLVQSGGGLVQPGGSLRLSCAASYFDFDSYEMSWVRQAPGKGLEWIGSIYHSGSTYYNPSLKSRVTISRDNSKNTLYLQMNTLRAEDTATYYCARVNMDRFDYWGQGTLVTVSSASTKGPSVFPLAPSSKSTSGGTAALGCLVKDYFPEPVTVSWNSGALTSGVHTFPAVLQSSGLYSLSSVVTVPSSSLGTQTYICNVNHKPSNTKVDKRVEPKSCEVKTDSTDHVKPKETENTKQPSKSCHKPKAIVHTEKVNMMSLTVLGLRMLFAKTVAVNFLLTAKLFFL
chain 3: QVQLVQSGGGLVQPGGSLRLSCAASYFDFDSYEMSWVRQAPGKGLEWIGSIYHSGSTYYNPSLKSRVTISRDNSKNTLYLQMNTLRAEDTATYYCARVNMDRFDYWGQGTLVTVSSRTVAAPSVFIFPPSDEQLKSGTASVVCLLNNFYPREAKVQWKVDNALQSGNSQESVTEQDSKDSTYSLSSTLTLSKADYEKHKVYACEVTHQGLSSPVTKSFNRGECPIKTDVITMDPKDNCSKDANDTLLLQLTNTSAYYMYLLLLLKSVVYFAIITCCLLRRTAFCCNGEKS
GPC3 protein [1]
  percent of cells in the binding-positive gate: 56.9%
GPC3 protein [2]
  percent of cells in the binding-positive gate: 70.6%
